This passage reports protein production results from a protein production outcome set (Wang et al. 2014).

The series can be described thus: label from the status in PepcDB records.
Regarding “MKTARPGKLKRQEEQASFISWRFALLCGCILLALVGLIMRTAYLQVINPDKLVREGDMRSLRVQEVPTARGMISDRSGRPLAVSVPVNAVWADPKELIEQGGISLDTRWKALSDALEIPLDQLATRINANPKGRFVYLARQVNPAIGDYIRKLKLPGIHLRQESRRYYPAGQVMAHIIGVTNIDGQGIEGVEKSFDRWLTGQPGERTVRKDHYGRVIEDISSVDSQAAHNLVLSVDERLQALVYRELNNAVAFNKAESGTAVLVDVNTGEVLAMANSPSYNPNNLTGTPKDAMRNRAITDIFEPGSTVKPMVVMTALQHGVVKENSVLNTLPYFVNGHQIKDVARYAELSVTGILQKSSNVGVSKLALAMPSSALVDTYSRFGFGKATNLGLVGESSGLYPKKQRWSDIERATFSFGYGLMVTPLQLARVYATIGSMGVYRPLSITRVDPPVAGERIFPEPLVRTVVHMMESVALPGGGGTKAAIKGYRIAIKTGTAKKVGPDGKYMDRYLAYTAGVAPASNPRFALVVVINDPQAGKYYGGAVSAPVFGAIMGGVLRTMNIEPDALPTGDKSELVINTKEGSGGRS”, the protein production result was “not failed”.

As for “MKTEMLHTQEDILKMLDSLLRPAEPFWNEFYENREKDVPFFENVPDENLVSYIQKERVLKGKVLELGCGPGRNAIYLANEGFDVTAVDLSVEGINWAKERALAKGVEIHFICDSIFNLEVQNEFDFVYDSGCLHHIPPHRRINYVDLIKNSLKSGGYFGLTCFAAGDLDERNGSEITDWDVYREWSLQGGLAYSEEKLREIFKELEVIEIRRMKQMKQPNEMFGESFLWTALFKKK”, the protein production result is on record as “failed”. The result for “MKTEMTNVDISVAVSELQKVINGKLDKAFLVNNQDGKELILKVHIPEIGSREIAIGLGKYKYMTLTEYEREKPRNPPSFVMLLRKHLKNIKITSVAQHNFDRIVIFNFEWNELKYKLIIELFGDGNAILLDSEDKIILPLKIERWSTRKIVPKEIYKFPPQKDLDPKNLDYSLAKKLFIEEFEKEENKDTEVVRIISRTFGLAGVYSEEICLNSEIDKNLKNPKNEEIEKLFEGSKSFFKKVFGELKPKSTLKNGEFVNIDPIDLKIHENLKENEIKHYESFLTALDEYFSRFIMKKEIKQAESKLQKLVKKQERILKSQLDTKDKYEKQSVSNHKRGDLIYANYSLVDEIVSTIKDAREKMDWNGIKNVIKENKTHPILSKIINVNEKNAELTLKLSADYGNGLIEDSVPVDLRKNAFENADIVYQKSKKFKNKVQGVIEALKISEKKLAELKEKEKLDSEVFKEKEEKIKKKERK” reads “failed”; that for “MKTIRLWDLPTRLFHWLLVIAVVGAVATVKLGAGWMAWHERFGLAVVGLLAFRVVWGLVGSTYARFSQFISGPGAMIRYLRGQWQGAGHNPLGAWSVLLLLGLFGFQAVTGLFANDEIAFNGPLYRLVSSGWSDTLSSWHRLMEWGLYAVVALHVLAVLFYTHVRKDNLIKPMVTGRKQVQSSELKDASGGGWLAMIIALAIAVAVVWAASGGLIPPPPPPPQNLGW”, “failed”; that for “MKTITTFENKKVLVLGLARSGEAAARLLAKLGAIVTVNDGKPFDENPTAQSLLEEGIKVVCGSHPLELLDEDFCYMIKNPGIPYNNPMVKKALEKQIPVLTEVELAYLVSESQLIGITGSNGKTTTTTMIAEVLNAGGQRGLLAGNIGFPASEVVQAANDKDTLVMELSSFQLMGVKEFRPHIAVITNLMPTHLDYHGSFEDYVAAKWNIQNQMSSSDFLVLNFNQGISKELAKTTKATIVPFSTTEKVDGAYVQDKQLFYKGENIMSVDDIGVPGSHNVENALATIAVAKLAGISNQVIRETLSNFGGVKHRLQSLGKVHGISFYNDSKSTNILATQKALSGFDNTKVILIAGGLDRGNEFDELIPDITGLKHMVVLGESASRVKRAAQKAGVTYSDALDVRDAVHKAYEVAQQGDVILLSPANASWDMYKNFEVRGDEFIDTFESLRGE”, “not failed”. To “MKTLFLQYPACSTCQKAKKWLIENNIEYTNRLIVDDNPTVEELKAWIPLSGLPVKKFFNTSGVVYKELKLSSKLPTMTEEEQIALLATNGKLVKRPLVVTERFVLVGFKPEEWEKL” belongs “not failed”. To “MKTLHTDVAIIGAGTAGLAAYRAARAAGKRALLIEGGQYGTTCARVGCMPSKLLIAAAEAAHAAAHGGPFGVHIDGAVRIDGAQVMARVKSERDRFVGFVLEGVENIPAEDKLRGMARFVEDTVLRVDGHTEVRAGSVVIASGSRPAVPPPFLALGDRLVVNDDVFAWDTLPARVAVFGPGVIGLELGQALARLGVQVRVFGVSGSLGGITDPRVRQSARKAFQQEFYLDPDARVLETKRVGDEVEVRYVALDNTERTERFDYALVATGRRPNVDGLDLHNTSLALDARGVPHFDRHTMQAGQAPVFIAGDANADAPLLHEAADEGRIAGENAARYPDVAPGLRRAALGVVFSDPQIALVGTPFARLESGTFVAGEVDFGDQGRSRVMLRNRGMLRVYADIESGRFVGAEMVGPSAEHIGHLLAWAAQQSLTVAQMLEMPFYHPVVEEGLRTALRDAAARLAQARPQRLAA” belongs “failed”; to “MKTTIAAALQQYFLNDNTACYVLTGDNYPHRIPMRNDEERLNVYNESGEDGLRGYLGTPKEIDFDRINKELSEFKAGKDIIEIKHMGREDGDISYDETDFTGIKVLILEWTHGGSEYLKGVDIPVFLESSPEETKARRIKRGRDENAASPFICRVVELEQEKLDLQGKNARIVVGKDGKVYEQLEHHHHHH”, “failed”. For the sequence “MKTTTIFTAALLACLSAPAHAQDLRGSEAGAVMKRESDVRDYYELQQRLKESRESRPEEAVTDRTEPAPQPPADGGQRVFISHIVTDPSEILTEDDLRQVVAPLEGKEVSIRELLAMVDRINDLYRQKGYLTARAVLPPQKVERGTVRIRLVEGRVGRISVGGNRHTRDWFVTSRLHLREGDLVRLDTLENDLFRFNAINDVKLRAEVKPGTATGTTDLILRTQEPDNYRVVAFADNGGGRYIGQERLGLTLQDLSLLGIRDPLTVGGTVADGTLSAHASYSLPLTPVGTRLGVTYDYTSIWITSGPFESLDVDGTSSDLGLTLSQPFALSPALSVTTFAGFNWKKSTTDFGGDTIFENRTRTLTLGGDLLAIDGYGTWFTRHVLTQGFHDFGGDRSFFKYNGDLVRTFILPDDFSALVRASGQVSGNHLLPSSEQFQLGGIATVRGFYEGLLIGDDGYFVSAELTLPLFPADASVYDVRLSPLLRGAIFFDHGGAFPYKGSGESIDHNDFLSSAGFGFILNLAKYLTGRIDFGFPVGERDPDPGTVRVHFSLSSEIL”, the protein production entry is given as “failed”.

In the case of “MKTYALVMAGGRGERLWPLSREDRPKPFLPLFEGKTLLEATLERLAPLVPPERTLLAVRRDQEAVARPYADGIRLLLEPLGRDTAGAVLLGVAEALKEGAERLLVLPADHYVGDDEAYREALATMLEAAEEGFVVALGLRPTRPETEYGYIRLGPREGAWYRGEGFVEKPSYAEALEYIRKGYVWNGGVFAFAPATMAELFRRHLPSHHEALERLLAGASLEEVYAGLPKISIDYGVMEKAERVRVVLGRFPWDDVGNWRALERVFSQDPHENVVLGEGRHVALDTFGCVVYADRGVVATLGVSGLVVAKVGDEVLVVPKDWAREVREVVKRLEAQE”, the protein production entry is “not failed”.

Take “MKVAVIGSGISGLGSAYVLANQGVKEVVLYEKEESLGGHAKTVRFDGVDLDLGFMVFNRVTYPNMIEFFENLGVEMEVSDMSFAVSLDNGKGCEWGSRNGVSGLFAQKKNVLNPYFWQMIREIVRFKEDVLNYIEKLEGNPDIDRKETLGEFLNTRGYSELFQQAYLVPICGSIWSCPSDGVLSFSAYSVLSFCCNHHLLQIFGRPQWLTVAGRSQTYVAKVRAELERLGCKIRTSCDVKSVSTSENGCVTVTSGDGSEEVFDRCILAMHAPDALRLLGEEVTFDESRVLGAFQYVYSDIYLHHDIDLMPRNKAAWSAWNFLGSTEKKVCVTYWLNILQNLGENSEPFFVTLNPDETPKKALLKWTTGHPVPSVAASIASQELHQIQGKRNIWFCGAYQGYGFHEDGLKAGMAAARGLLGKETALLNNPRHMVPSLTETGARLFVTRFLGQFISTGSVTILEEGGTMFTFGGKDSTCPLKSILKIHSPQFYWKVMTQADLGLADAYINGDFSFVDKESGLLNLIMILIANRDTKSNLTKKRGWWTPMFLTAGLASAKYFLKHVSRQNTLTQARRNISRHYDLSNELFGLFLDDTMTYSSAVFKSDDEDLRTAQMRKISLLIDKARIEKDHEVLEIGCGWGTLAIEVVRRTGCKYTGITLSIEQLKYAEEKVKEAGLQDRITFELRDYRQLSDAHKYDRIISCEMLEAVGHEFMEMFFSRCEAALAEDGLMVLQFISTPEERYNEYRLSSDFIKEYIFPGACVPSLAKVTSAMSSSSRLCIEHVENIGIHYYQTLRLWRKNFLERQKQIMALGFDDKFVRTWEYYFDYCAAGFKTRTLGDYQLVFSRPGNVAAFADSYRGFPSAYCVS”: the protein production result was “failed”. As for “MKVAVLDFGKTNSKLFVFGQDGGILDERRTQPKWTHQDGFSVLDEAALHDWALGAVTEAVENHGVEGVMVSGHGCTFALVDDAALTHPILDYEQEPPAEIAARIDHRIPDFAETFSPRLPLGFNYGRHMLWVQEVDPDAFAAAKSILGYPQYWSWRLGGRPVSEVSYLGCHSHLWAPRSQDFSSLVDAEGWRGQMPAFARAGAVIGERRLGSSSRPIAIHNGVHDSNAALHAYRRQELGPLTVVSTGTWVVVLNPGCPLDVLDRDRDMLVNVDVDGGPVPTIRFMGGREFAAISAGWQGAIPPGAVQQAIDAGIMALPSFAPGGPMPDRPGRLVGRTPYAAERAAAALLYVALMVDLCLDLIQSQDTVIVDGGLNAGGLLAGLLAELRPGQAFLQGATLEGSATGAAALAFESVGRDFVAEAPEPVHAARFAGLAGYRDAWRDRVGGQGTAIKAAGGARLEHHHHHH”, the protein production result was “failed”.

In the case of “MKVDREKYGSEKIAKLKILEELKKENPNKKIIAIGNGNNDELLLKNADLGICVIGDEGAWSKTILSSDIVVKDINDALDLLLNENRLKATSRD”, the protein production entry is “failed”. Turning to “MKVEFLMTNHNHQHHHSHAHGHVHTDNKKVLMFSFIIISLFMLVEIIGGFLANSLALLSDGFHMLSDAISLGVALIAFIYAEKHATKSKTYGYKRFEILAALFNGVTLFIISIIIIIEAIRRFLEPPEVQSKEMFIISVIGLMVNIIVAILMFKGGDTSHNLNMRGAFLHVLGDLFGSVGAIVASLLIWGFNFTIADPIASILVSLIILKSAYGISKSSLNILMEGTPNDIDLNAVIKAISKDERIQNVHDCHVWTISNDMNALSCHAVVPEYLSVQTCETMLKSIESDLLQLNIQHMTIQLETPEHKHDESTLCSGIHEHSH”, the protein production result was “failed”. With “MKVERLSQPAQHLLTAGVENENSFALDTESVFTSAFLRAARGDARSSSRSDVVSLSEIVLEINQSIDELRVEKPAIKMSPQKYLLRNENNAGEFFFIKKARSEGYLQGRTGDPGAGGVDVSGPSDVRIPNRVTIGPDTVLFHPATGAPLLWFVRDGFDYDFFDGSGFHPRTGAKLAPFTKEEALIFEKRIREKEAEIRREAERVEKDRADREARDFAAKEALARKQEEDRKLREAEAARASEAGQRCDELAANPNDRNKVGQGASFSALKAQAADAVKACDLALKQKPSELRFKYQLARALQFSDRPRSFKLHKELVGQGYAASYDNLGWMYYTDRKDKPQAIVLFRQGIQVGDVDSMVSLAELVDRAEATPANASESKIELCRRAAELGHVGAAQCYQVEVAKQEQAEKDRAQQLEQQKMMIQLMGTIIQSATRR”, the protein production entry is on record as “failed”.

With “MKVIGINGSPRRAGNTSIMLKTIFEVLEDEGIETELIQVGGTNIKGCRACYACIKNKNSECSTKGDGFNEIFAKMVEADGMILGSPTYFADITPELKALIDRAGFVSRTNGQLFRHKVGASVVSLRRGGGIHAYDSINHLFQICQMFMVGSTYWNLGFGGRDGGEVVNDTEGMENMRDLGHSMAFLLKKLHNLEHHHHHH”, the protein production entry was “not failed”.
